Consider 125 sequences from the supplement of paper PMC9112550, “Optimization of the antimicrobial peptide Bac7 by deep mutational scanning” (BMC Biology, 2022).

The subject of the series is Escherichia coli TOP10. In words: shrunken log2 fold change of peptide-encoding DNA abundance (4.5 h post-induction vs induction); higher = less antimicrobial activity (less host growth inhibition). As to conditions: time post-induction: 4.5 h; library: site-saturation at positions 5, 18, 19, 20.
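Note: peptides expressed intracellularly from a pBAD plasmid library in pooled LB shake-flask culture, induced with 0.3% L-arabinose, DNA abundance read by NGS, three biological replicates, DESeq2 with apeglm shrinkage.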

For RRIRTRPPRLPRPRPRPSTPPRP, the “shrunken log2 fold change” value was -0.195.

In the case of RRIRFRPPRLPRPRPRPHPNPRP, the “shrunken log2 fold change” value was -0.31. Consider RRIRCRPPRLPRPRPRPKGMPRP, for which the “shrunken log2 fold change” value was -0.148. On to RRIRGRPPRLPRPRPRPMVSPRP, for which the “shrunken log2 fold change” value is 0.313. Regarding RRIRFRPPRLPRPRPRPNYDPRP, the “shrunken log2 fold change” value was -0.866. For the sequence RRIRDRPPRLPRPRPRPARMPRP, the “shrunken log2 fold change” value was 0.584. For the sequence RRIRKRPPRLPRPRPRPRHEPRP, the “shrunken log2 fold change” value is -0.115. As to RRIRFRPPRLPRPRPRPLEPPRP, the “shrunken log2 fold change” value is -0.199. As for RRIRHRPPRLPRPRPRPAVRPRP, the “shrunken log2 fold change” value is -0.273. Consider RRIRCRPPRLPRPRPRPHCFPRP, for which the “shrunken log2 fold change” value is -0.429. Consider RRIRTRPPRLPRPRPRPNMVPRP, for which the “shrunken log2 fold change” value is -0.0672. Take RRIRDRPPRLPRPRPRPLTLPRP: the “shrunken log2 fold change” value is -0.0246. With RRIRQRPPRLPRPRPRPRIHPRP, the “shrunken log2 fold change” value is -0.234. As to RRIRFRPPRLPRPRPRPYLAPRP, the “shrunken log2 fold change” value is -0.425. With RRIRIRPPRLPRPRPRPGPIPRP, the “shrunken log2 fold change” value is -0.329. Consider RRIRWRPPRLPRPRPRPRWSPRP, for which the “shrunken log2 fold change” value is 0.372.

Consider RRIRARPPRLPRPRPRPLGCPRP, for which the “shrunken log2 fold change” value turned out to be 0.904. Take RRIRGRPPRLPRPRPRPTLFPRP: the “shrunken log2 fold change” value amounted to 0.824.

Take RRIRTRPPRLPRPRPRPVCEPRP: the “shrunken log2 fold change” value was determined as 0.243. Regarding RRIRLRPPRLPRPRPRPWMWPRP, the “shrunken log2 fold change” value worked out at 0.154. To RRIRWRPPRLPRPRPRPSKHPRP belongs -0.499. To RRIRDRPPRLPRPRPRPTQAPRP belongs 0.017. RRIRSRPPRLPRPRPRPAYLPRP: the “shrunken log2 fold change” value was -0.731. In the case of RRIRARPPRLPRPRPRPWHKPRP, the “shrunken log2 fold change” value is 0.0323. To RRIRGRPPRLPRPRPRPFPCPRP belongs -0.0294; to RRIRHRPPRLPRPRPRPARKPRP, -0.164. For the sequence RRIRQRPPRLPRPRPRPELDPRP, the “shrunken log2 fold change” value amounted to 0.0346. For RRIRGRPPRLPRPRPRPGAPPRP, the “shrunken log2 fold change” value stood at 1.29.

As for RRIRMRPPRLPRPRPRPFQRPRP, the “shrunken log2 fold change” value is -0.0335.

For the sequence RRIRRRPPRLPRPRPRPGFVPRP, the “shrunken log2 fold change” value turned out to be 0.423.

On to RRIRQRPPRLPRPRPRPHKPPRP, for which the “shrunken log2 fold change” value is -0.0272. With RRIRTRPPRLPRPRPRPKRMPRP the figure was -0.157. For RRIRERPPRLPRPRPRPKNPPRP, the “shrunken log2 fold change” value is -0.503. With RRIRDRPPRLPRPRPRPECVPRP the figure was 1.3. Turning to RRIRRRPPRLPRPRPRPSAHPRP, the “shrunken log2 fold change” value is -0.0606. Turning to RRIRLRPPRLPRPRPRPAAAPRP, the “shrunken log2 fold change” value was found to be 1.04. For RRIRWRPPRLPRPRPRPLKRPRP, the “shrunken log2 fold change” value was determined as 0.612. Consider RRIRMRPPRLPRPRPRPHHSPRP, for which the “shrunken log2 fold change” value was -0.236. With RRIRGRPPRLPRPRPRPWKWPRP, the “shrunken log2 fold change” value was 0.0325. RRIRVRPPRLPRPRPRPCREPRP: the “shrunken log2 fold change” value is -0.0897. In the case of RRIRPRPPRLPRPRPRPKKDPRP, the “shrunken log2 fold change” value is -0.151.

Regarding RRIRPRPPRLPRPRPRPEPSPRP, the “shrunken log2 fold change” value came out at 0.314. Consider RRIRSRPPRLPRPRPRPRNEPRP, for which the “shrunken log2 fold change” value worked out at 0.00717. With RRIRHRPPRLPRPRPRPPAVPRP, the “shrunken log2 fold change” value was found to be 0.373.

With RRIRDRPPRLPRPRPRPWCDPRP, the “shrunken log2 fold change” value came out at 0.211. For RRIRFRPPRLPRPRPRPFDNPRP, the “shrunken log2 fold change” value was -0.31. As for RRIRRRPPRLPRPRPRPGCYPRP, the “shrunken log2 fold change” value was 0.17. In the case of RRIRIRPPRLPRPRPRPDGMPRP, the “shrunken log2 fold change” value was -0.06.

For RRIRSRPPRLPRPRPRPIHRPRP, the “shrunken log2 fold change” value was -0.172. Regarding RRIRERPPRLPRPRPRPRLWPRP, the “shrunken log2 fold change” value was found to be 0.0271. As for RRIRMRPPRLPRPRPRPWQGPRP, the “shrunken log2 fold change” value was 0.155. As to RRIRWRPPRLPRPRPRPHSYPRP, the “shrunken log2 fold change” value is -0.0789. With RRIRGRPPRLPRPRPRPERPPRP, the “shrunken log2 fold change” value was 1.28. Take RRIRPRPPRLPRPRPRPFGWPRP: the “shrunken log2 fold change” value was 0.328. Regarding RRIRARPPRLPRPRPRPVAMPRP, the “shrunken log2 fold change” value stood at 0.383. As to RRIRNRPPRLPRPRPRPFIHPRP, the “shrunken log2 fold change” value is -0.116. Consider RRIRERPPRLPRPRPRPYQYPRP, for which the “shrunken log2 fold change” value was -0.0129. Turning to RRIRNRPPRLPRPRPRPTLCPRP, the “shrunken log2 fold change” value turned out to be 0.00464. For the sequence RRIRVRPPRLPRPRPRPMQSPRP, the “shrunken log2 fold change” value turned out to be 0.292. For the sequence RRIRVRPPRLPRPRPRPPNRPRP, the “shrunken log2 fold change” value was determined as 0.144. To RRIRARPPRLPRPRPRPIESPRP belongs 0.0614; to RRIRARPPRLPRPRPRPSAWPRP, 0.797; to RRIRVRPPRLPRPRPRPKDYPRP, -0.366.

With RRIRHRPPRLPRPRPRPDAAPRP, the “shrunken log2 fold change” value was found to be 0.453. With RRIRVRPPRLPRPRPRPEDWPRP, the “shrunken log2 fold change” value came out at 0.354. For RRIRVRPPRLPRPRPRPDHSPRP, the “shrunken log2 fold change” value was -0.252. With RRIRWRPPRLPRPRPRPDCMPRP the figure was 0.259; with RRIRIRPPRLPRPRPRPSTWPRP, -0.481. For RRIRKRPPRLPRPRPRPKNEPRP, the “shrunken log2 fold change” value was 0.345. As to RRIRARPPRLPRPRPRPMDTPRP, the “shrunken log2 fold change” value was 0.143.

As for RRIRYRPPRLPRPRPRPVMTPRP, the “shrunken log2 fold change” value is -0.09.

Turning to RRIRPRPPRLPRPRPRPICIPRP, the “shrunken log2 fold change” value is -0.158. As to RRIRARPPRLPRPRPRPYCPPRP, the “shrunken log2 fold change” value is -0.585.

On to RRIRQRPPRLPRPRPRPHEYPRP, for which the “shrunken log2 fold change” value was 0.0128. With RRIRARPPRLPRPRPRPMRAPRP, the “shrunken log2 fold change” value stood at 1.25.

Consider RRIRRRPPRLPRPRPRPGPSPRP, for which the “shrunken log2 fold change” value is 0.442. With RRIRIRPPRLPRPRPRPREGPRP the figure was 0.229; with RRIRQRPPRLPRPRPRPICNPRP, -0.211. On to RRIRTRPPRLPRPRPRPGYRPRP, for which the “shrunken log2 fold change” value is -0.0981. As for RRIRYRPPRLPRPRPRPDWTPRP, the “shrunken log2 fold change” value was 0.0173.

For the sequence RRIRVRPPRLPRPRPRPSEDPRP, the “shrunken log2 fold change” value was determined as 0.376. To RRIRHRPPRLPRPRPRPHHWPRP belongs -0.156; to RRIRQRPPRLPRPRPRPMFIPRP, -0.129.

Regarding RRIRMRPPRLPRPRPRPDSGPRP, the “shrunken log2 fold change” value is -0.01. As for RRIRRRPPRLPRPRPRPQPAPRP, the “shrunken log2 fold change” value was determined as 0.387.

On to RRIRDRPPRLPRPRPRPLKYPRP, for which the “shrunken log2 fold change” value was -0.529. On to RRIRCRPPRLPRPRPRPFKQPRP, for which the “shrunken log2 fold change” value is -0.0402. In the case of RRIRNRPPRLPRPRPRPQDPPRP, the “shrunken log2 fold change” value is -0.296. As for RRIRHRPPRLPRPRPRPIKTPRP, the “shrunken log2 fold change” value is -0.00476.

Turning to RRIRLRPPRLPRPRPRPACTPRP, the “shrunken log2 fold change” value was -0.128. Regarding RRIRHRPPRLPRPRPRPYTPPRP, the “shrunken log2 fold change” value was -1.32.

Take RRIRQRPPRLPRPRPRPDKMPRP: the “shrunken log2 fold change” value came to 0.021.

Regarding RRIRNRPPRLPRPRPRPGCDPRP, the “shrunken log2 fold change” value is -0.0442.

Turning to RRIRKRPPRLPRPRPRPTRHPRP, the “shrunken log2 fold change” value came out at 0.482. In the case of RRIRMRPPRLPRPRPRPEPTPRP, the “shrunken log2 fold change” value worked out at 2.58. Regarding RRIRQRPPRLPRPRPRPVVMPRP, the “shrunken log2 fold change” value came to 0.0928. Regarding RRIRLRPPRLPRPRPRPGFPPRP, the “shrunken log2 fold change” value was -0.2. Take RRIRVRPPRLPRPRPRPESRPRP: the “shrunken log2 fold change” value was -0.0259.

On to RRIRNRPPRLPRPRPRPWALPRP, for which the “shrunken log2 fold change” value was -0.0675. For the sequence RRIRLRPPRLPRPRPRPEWHPRP, the “shrunken log2 fold change” value was 0.222.

As for RRIRWRPPRLPRPRPRPVLHPRP, the “shrunken log2 fold change” value is -0.0358.

Turning to RRIRPRPPRLPRPRPRPMEMPRP, the “shrunken log2 fold change” value was -0.0174. Regarding RRIRFRPPRLPRPRPRPVEIPRP, the “shrunken log2 fold change” value was -0.391. In the case of RRIRYRPPRLPRPRPRPLQHPRP, the “shrunken log2 fold change” value was -0.688.

Turning to RRIRYRPPRLPRPRPRPRRNPRP, the “shrunken log2 fold change” value is -0.268.

For the sequence RRIRQRPPRLPRPRPRPYMEPRP, the “shrunken log2 fold change” value is -0.26. As for RRIRLRPPRLPRPRPRPSQDPRP, the “shrunken log2 fold change” value is -0.282. In the case of RRIRTRPPRLPRPRPRPFFFPRP, the “shrunken log2 fold change” value was 0.0893. With RRIRGRPPRLPRPRPRPFDTPRP the figure was 0.151; with RRIRRRPPRLPRPRPRPVRTPRP, 0.328. To RRIRFRPPRLPRPRPRPWNTPRP belongs -1.19.

For RRIRTRPPRLPRPRPRPTVTPRP, the “shrunken log2 fold change” value was 0.0797. Take RRIRHRPPRLPRPRPRPWYGPRP: the “shrunken log2 fold change” value was -0.779. For RRIRKRPPRLPRPRPRPNIMPRP, the “shrunken log2 fold change” value is -0.189. With RRIRFRPPRLPRPRPRPVCWPRP the figure was 0.399; with RRIRYRPPRLPRPRPRPMRSPRP, -0.0201. As for RRIRGRPPRLPRPRPRPWENPRP, the “shrunken log2 fold change” value came out at 1.02. Take RRIRQRPPRLPRPRPRPVPQPRP: the “shrunken log2 fold change” value was determined as 0.0925.

Turning to RRIRVRPPRLPRPRPRPMTHPRP, the “shrunken log2 fold change” value is -0.352. Consider RRIRERPPRLPRPRPRPMLEPRP, for which the “shrunken log2 fold change” value was 0.282.

Regarding RRIRNRPPRLPRPRPRPHTFPRP, the “shrunken log2 fold change” value is -0.0139. To RRIRDRPPRLPRPRPRPMTVPRP belongs 0.047; to RRIRCRPPRLPRPRPRPEEWPRP, 0.0214; to RRIRVRPPRLPRPRPRPPLCPRP, 0.338.

On to RRIRDRPPRLPRPRPRPRTCPRP, for which the “shrunken log2 fold change” value is -0.0386.
